Measurements published in patent publication US20250223353A1 (BIOTHEUS, published 2025).

How the values were obtained:
Experiment in all cases: BLI (ForteBio), PVRIG-Fc on AHQ sensor, 100 nM Fab in solution, monovalent, 1:1 model
human PVRIG-Fc protein = biological target: T1, human PVRIG-Fc protein (human, UniProt Q6DKI7 41-171)
T1 construct: also called PVRIG-Fc antigen (human); not shown: Fc part
T1 sequence: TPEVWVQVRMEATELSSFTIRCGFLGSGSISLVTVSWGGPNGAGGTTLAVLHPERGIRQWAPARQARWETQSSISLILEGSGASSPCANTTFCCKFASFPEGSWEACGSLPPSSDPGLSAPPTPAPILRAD
Procedure: (§1) Biofilm layer optical interference technology (ForteBio) was used to determine the binding and dissociation rate constant (KD) values of the antibodies and their variants or Fab fragments obtained in Example 1 to human, cynomolgus monkey and mouse PVRIG. ForteBio affinity measurement was performed according to existing methods (Este, P et al., High throughput solution-based measurement of antibody-antigen affinity and epitope binning. Mabs, 2013.5 (2): p270-8).
(§2) The antigen-loaded sensor was incubated in 100 nM Fab solution to the plateau phase, and then the sensor was transferred to an analysis buffer and incubated for at least 2 minutes for measuring dissociation rate. The kinetic analysis was performed using a 1:1 binding model.

[1] = biological target: T2, cynomolgus monkey PVRIG-Fc protein (cynomolgus monkey, UniProt Q6DKI7 41-171 (human entry), limits assumed)
T2 construct: also called cynomolgus PVRIG-Fc protein; not shown: Fc part
T2 chain: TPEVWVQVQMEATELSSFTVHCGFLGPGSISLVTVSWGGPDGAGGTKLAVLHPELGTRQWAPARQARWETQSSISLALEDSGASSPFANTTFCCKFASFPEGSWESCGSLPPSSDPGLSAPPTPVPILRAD
Procedure: as §1, §2

mouse PVRIG-Fc protein = biological target: T3, mouse PVRIG-Fc protein (mouse)
T3 construct: not shown: Fc part
T3 chain: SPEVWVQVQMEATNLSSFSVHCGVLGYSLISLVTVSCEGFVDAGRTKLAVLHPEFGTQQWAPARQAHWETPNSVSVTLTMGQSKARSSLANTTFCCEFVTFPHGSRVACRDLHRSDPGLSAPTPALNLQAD
Procedure: as §1, §2

Kd (human PVRIG-Fc protein): 61 pM
Kd [1]: 128 pM
Kd (mouse PVRIG-Fc protein): 114000 pM
B1: ADI-56127 Fab fragment (Fab, V domains shown)
VH: QVQLVQSGAEVKKPGSSVKVSCKASGGTESVDAISWVRQAPGQGLEWMGDIIPFFDTDYAQKFQGRVTITADESTSTAYMELSSLRSEDTAVYYCAREGGTSWTHFFDLWGRGTLVTVSS
VL: not shown
notes: Fab made by papain digestion of the yeast full-length IgG, purified with Kappa Select
